Experimental data from IntAct's records for PubMed 9428767.

B1: Guanine nucleotide-binding protein subunit beta (Saccharomyces cerevisiae), P18851 (parent)
chain: MAAHQMDSITYSNNVTQQYIQPQSLQDISAVEDEIQNKIEAARQESKQLHAQINKAKHKIQDASLFQMANKVTSLTKNKINLKPNIVLKGHNNKISDFRWSRDSKRILSASQDGFMLIWDSASGLKQNAIPLDSQWVLSCAISPSSTLVASAGLNNNCTIYRVSKENRVAQNVASIFKGHTCYISDIEFTDNAHILTASGDMTCALWDIPKAKRVREYSDHLGDVLALAIPEEPNSENSSNTFASCGSDGYTYIWDSRSPSAVQSFYVNDSDINALRFFKDGMSIVAGSDNGAINMYDLRSDCSIATFSLFRGYEERTPTPTYMAANMEYNTAQSPQTLKSTSSSYLDNQGVVSLDFSASGRLMYSCYTDIGCVVWDVLKGEIVGKLEGHGGRVTGVRSSPDGLAVCTGSWDSTMKIWSPGYQ
partner: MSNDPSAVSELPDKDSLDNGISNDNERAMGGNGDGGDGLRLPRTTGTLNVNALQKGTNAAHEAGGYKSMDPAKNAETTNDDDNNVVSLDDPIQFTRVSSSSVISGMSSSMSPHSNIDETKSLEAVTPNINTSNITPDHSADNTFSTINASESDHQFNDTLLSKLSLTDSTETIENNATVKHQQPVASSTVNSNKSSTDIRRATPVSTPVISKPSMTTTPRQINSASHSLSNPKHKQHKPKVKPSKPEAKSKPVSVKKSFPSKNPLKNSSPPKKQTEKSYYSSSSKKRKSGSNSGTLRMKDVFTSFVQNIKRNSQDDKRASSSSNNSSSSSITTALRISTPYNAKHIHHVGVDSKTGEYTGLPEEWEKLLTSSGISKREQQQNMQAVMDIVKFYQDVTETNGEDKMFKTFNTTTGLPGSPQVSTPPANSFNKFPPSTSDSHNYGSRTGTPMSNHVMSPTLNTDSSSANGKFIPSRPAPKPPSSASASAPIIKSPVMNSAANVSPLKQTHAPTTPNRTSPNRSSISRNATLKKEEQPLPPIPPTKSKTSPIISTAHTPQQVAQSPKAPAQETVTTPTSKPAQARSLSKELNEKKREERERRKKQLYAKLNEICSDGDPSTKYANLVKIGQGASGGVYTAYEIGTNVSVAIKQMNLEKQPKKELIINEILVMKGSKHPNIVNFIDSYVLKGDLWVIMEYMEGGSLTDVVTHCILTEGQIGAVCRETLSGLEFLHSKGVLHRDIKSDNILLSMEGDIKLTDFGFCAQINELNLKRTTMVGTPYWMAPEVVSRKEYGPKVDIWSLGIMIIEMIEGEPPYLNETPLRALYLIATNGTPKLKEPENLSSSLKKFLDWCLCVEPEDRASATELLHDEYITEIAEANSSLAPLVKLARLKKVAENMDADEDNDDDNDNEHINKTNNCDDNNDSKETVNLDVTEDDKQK
B2: Serine/threonine-protein kinase STE20 (Saccharomyces cerevisiae), Q03497 (parent)
chain: B1 partner
partner: B1 chain

Variants of: B1
Conditions: with ste20_yeast STE20, Q03497

effect of a mutation on the interaction | Variant
decreasing interaction | MAAHQMDSITYSNNVTQQYIQPQSLQDISAVEDEIQNKIEAARQESKQLHAQINKAKHKIQNASLFQMANKVTSLTKNKINLKPNIVLKGHNNKISDFRWSRDSKRILSASQDGFMLIWDSASGLKQNAIPLDSQWVLSCAISPSSTLVASAGLNNNCTIYRVSKENRVAQNVASIFKGHTCYISDIEFTDNAHILTASGDMTCALWDIPKAKRVREYSDHLGDVLALAIPEEPNSENSSNTFASCGSDGYTYIWDSRSPSAVQSFYVNDSDINALRFFKDGMSIVAGSDNGAINMYDLRSDCSIATFSLFRGYEERTPTPTYMAANMEYNTAQSPQTLKSTSSSYLDNQGVVSLDFSASGRLMYSCYTDIGCVVWDVLKGEIVGKLEGHGGRVTGVRSSPDGLAVCTGSWDSTMKIWSPGYQ [D62N]
decreasing interaction | MAAHQMDSITYSNNVTQQYIQPQSLQDISAVEDEIQNKIEAARQESKQLHAQINDAKHKIQDASLFQMANKVTSLTKNKINLKPNIVLKGHNNKISDFRWSRDSKRILSASQDGFMLIWDSASGLKQNAIPLDSQWVLSCAISPSSTLVASAGLNNNCTIYRVSKENRVAQNVASIFKGHTCYISDIEFTDNAHILTASGDMTCALWDIPKAKRVREYSDHLGDVLALAIPEEPNSENSSNTFASCGSDGYTYIWDSRSPSAVQSFYVNDSDINALRFFKDGMSIVAGSDNGAINMYDLRSDCSIATFSLFRGYEERTPTPTYMAANMEYNTAQSPQTLKSTSSSYLDNQGVVSLDFSASGRLMYSCYTDIGCVVWDVLKGEIVGKLEGHGGRVTGVRSSPDGLAVCTGSWDSTMKIWSPGYQ [K55D]

Variants of: B2
Conditions: with gbb_yeast STE4, P18851

effect of a mutation on the interaction | Variant
decreasing interaction | S879A;S880A;P883A
